Results published in patent publication US20260167721A1.

Tests used:
[1] = biological target: Jurkat TCRb knockout cells; assay: flow cytometry, Jurkat KO (TCRb knockout) cells, negative control, 1 ug/mL
[2] = biological target: Jurkat TCRb knockout cells; assay: flow cytometry, Jurkat KO (TCRb knockout) cells, negative control, 10 ug/mL
[3] = biological target: Jurkat TCRb knockout cells; assay: flow cytometry on Jurkat KO (TCRb knockout) cells, negative control, antibody at 1 ug/ml
[4] = biological target: Jurkat TCRb knockout cells; assay: flow cytometry on Jurkat KO (TCRb knockout) cells, negative control, antibody at 10 ug/ml

B1: Gemtuzumab (antibody, V domains shown)
VH: EVQLVQSGAEVKKPGSSVKVSCKASGYTITDSNIHWVRQAPGQSLEWIGYIYPYNGGTDYNQKFKNRATLTVDNPTNTAYMELSSLRSEDTAFYYCVNGNPWLAYWGQGTLVTVSS
VL: DIQLTQSPSTLSASVGDRVTITCRASESLDNYGIRFLTWFQQKPGKAPKLLMYAASNQGSGVPSRFSGSGSGTEFTLTISSLQPDDFATYYCQQTKEVPWSFGQGTKVEVKR
For B1, the gMFI [1] was 1860 gMFI, the gMFI [2] was 1830 gMFI and the flow cytometry signal [3] was 3000. The flow cytometry signal [4] was 2820.
